# Publication PMC9556784
# Assays:
# [1] = test system: PilJ soluble domain (Clostridioides difficile R20291?); assay: EMSA; conditions: 25C: 10 ng DNA in 10 ul, 10 mM Tris-HCl pH 8.5, 50 mM NaCl, 1 mg/ml BSA, 30 min, 1.5% agarose; 4C: 500 ng DNA in 10 ul, 20 mM Tris-HCl pH 8.3, 100 mM NaCl …
# [2] = test system: PilW soluble domain (Clostridioides difficile R20291?); assay: EMSA; conditions: 25C: 10 ng DNA in 10 ul, 10 mM Tris-HCl pH 8.5, 50 mM NaCl, 1 mg/ml BSA, 30 min, 1.5% agarose; 4C: 500 ng DNA in 10 ul, 20 mM Tris-HCl pH 8.3, 100 mM NaCl …
substance,measurement,setting,value
plasmid DNA (25C EMSA),Kd,[1],2.2 µM
same,Kd,[2],14.5 µM
